Experimental data from paper PMC12583987, “Impact of Hanks Kinase‐Dependent Phosphorylation of CodY on the Physiology and Virulence in Bacillus cereus” (MicrobiologyOpen, 2025).

What was measured:
Experiment in all cases: SEC; Superdex 75 column on an Akta Purifier, PBS 1x, 0.5 mL/min; 75 uL (about 150 ug) of each purified protein loaded individually; column calibrated with a low molecular weight kit; oligomer size from the elution volume
[1] = biological target: CodY-S215A (Bacillus cereus ATCC 14579), N-terminal (His)6-tagged (Bacillus cereus ATCC 14579) (UniProt Q819X8)
[2] = biological target: CodY-S215D (Bacillus cereus ATCC 14579), N-terminal (His)6-tagged (Bacillus cereus ATCC 14579) (UniProt Q819X8)
[3] = biological target: the molecule itself

CodY-S215A (Bacillus cereus ATCC 14579), N-terminal (His)6-tagged (from UniProt Q819X8 1-259) (natural protein)
stoichiometry N [1]: 2

CodY-S215D (Bacillus cereus ATCC 14579), N-terminal (His)6-tagged (from UniProt Q819X8 1-259) (natural protein)
stoichiometry N [2]: 2

B1: CodY (Bacillus cereus ATCC 14579), N-terminal (His)6-tagged (natural protein)
chain: MELLAKTRKLNALLQSAAGKPVNFREMSDTMCEVIEANVFVVSRRGKLLGYAIHQQIENERMKQMLAERQFPEEYTQSLFNITETSSNLDVNSAYTAFPVENRELFGQGLTTIVPIVGGGERLGTLVLARLGQEFLDDDLILAEYSSTVVGMEILREKAEEIEEEARSKAVVQMAISSLSYSELEAIEHIFEELNGTEGLLVASKIADRVGITRSVIVNALRKLESAGVIESRSLGMKGTYIKVLNDKFLQELAKLKTN
notes: CodY, global transcriptional regulator of Bacillus cereus ATCC 14579; codY PCR-amplified from the chromosome with primers SAT31 + SAT32 and cloned in pQE-30; printed monomer Mw 29.8 kDa; also called CodY WT; wild-type CodY; source: E. coli M15 [pREP4], purified (Ni-NTA, desalted on PD10)
stoichiometry N [3]: 2
